Laboratory results from patent US20200317768A1 (published 2020).
Changes are numbered by the printed parent chain.

B1: M103205H795-MY274/M103202L889-SK1 (antibody, human IgG1, kappa)
heavy: QVTLKESGPVLVKPTETLTLTCTVSGIDLSHDDISWVRQAPGKGLEWVGIISYAGSTYYASWAKGRLTISKDTSKNQVVLTMTNMDPVDTATYYCARGVPAYSHGGDLWGQGTLVTVSSASTKGPSVFPLAPSSKSTSGGTAALGCLVKDYFPEPVTVSWNSGALTSGVHTFPAVLQSSGLYSLSSVVTVPSSSLGTQTYICNVNHKPSNTKVDKKVEPKSCDKTHTCPPCPAPELLTGPSVFLFPPKPKDTLMISRTPEVTCVVVDVSDEDPEVKFNWYVDGVEVHNAKTKPREEQYNSTYRVVSVLTVLHQDWLNGKEYKCKVSNKALPKPIEKTISKAKGQPREPQVYTLPPSREEMTKNQVSLTCLVKGFYPSDIAVEWESNGQPENNYKTTPKVLDSDGSFFLYSKLTVDKSRWQQGNVFSCSVMHEALHNHYTQKSLSLSP
light: DIVMTQSPATLSLSPGERATLSCTSSQSVYHANWLSWFQQKPGQPPKLLIYWASTLAYGVPSRFSGSGSGTDFTLTISSLQPEDAATYYCAGGYGGGRYAFGQGTKVEIKRTVAAPSVFIFPPSDEQLKSGTASVVCLLNNFYPREAKVQWKVDNALQSGNSQESVTEQDSKDSTYSLSSTLTLSKADYEKHKVYACEVTHQGLSSPVTKSFNRGEC
B2: M103205H795-MY293/M103202L889-SK1 (antibody, human IgG1, kappa)
heavy: B1 heavy with T238G, G239Y, D270E, Q297L
light: B1 light
B3: M103205H795-MY271/M103202L889-SK1 (antibody, human IgG1, kappa)
heavy: B1 heavy with T238V
light: B1 light
B4: M103205H795-MY219/M103202L889-SK1 (antibody, human IgG1, kappa)
heavy: B1 heavy with T238G, G239Y, K398P
light: B1 light
B5: M103205H795-MY242/M103202L889-SK1 (antibody, human IgG1, kappa)
heavy: B1 heavy with T238G, P240I
light: B1 light
B6: M103205H795-MY272/M103202L889-SK1 (antibody, human IgG1, kappa)
heavy: B1 heavy with T238Q
light: B1 light
B7: M103205H795-MY227/M103202L889-SK1 (antibody, human IgG1, kappa)
heavy: B1 heavy with T238G, G239Y
light: B1 light
B8: M103205H795-MY269/M103202L889-SK1 (antibody, human IgG1, kappa)
heavy: B1 heavy with T238M
light: B1 light
B9: M103205H795-MY273/M103202L889-SK1 (antibody, human IgG1, kappa)
heavy: B1 heavy with T238L
light: B1 light

Molecular target: T1, cynomolgus monkey FcγRIIa2 extracellular domain, C-terminal His-tag (cynomolgus monkey)
T1 construct: also called cyno FcγRIIa2; cynoFcgRIIa2; not shown: His-tag added to C-terminus
T1 chain: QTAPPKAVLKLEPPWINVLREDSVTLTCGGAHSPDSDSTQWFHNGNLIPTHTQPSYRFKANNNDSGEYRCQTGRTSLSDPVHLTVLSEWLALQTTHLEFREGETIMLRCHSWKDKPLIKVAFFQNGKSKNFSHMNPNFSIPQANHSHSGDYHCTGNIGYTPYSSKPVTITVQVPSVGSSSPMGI
Experiment: SPR (Biacore), antibody captured, FcgR analyte, 25 C
Binder B1 has a Kd of 800 nM.
Binder B2 has a Kd of 3300 nM.
With B3 the Kd was 700 nM.
Binder B4 has a Kd of 4000 nM.
Work on B5 yielded a Kd of 4200 nM.
For B6, the Kd was 1900 nM.
B7 was tested, and the Kd was 2500 nM.
With B8 the Kd was 2600 nM.
B9 showed a Kd of 3500 nM.

Molecular target: T2, cynomolgus monkey FcγRIIa1 extracellular domain, C-terminal His-tag (cynomolgus monkey)
T2 construct: also called cyno FcγRIIa1; cynoFcgRIIa1; not shown: His-tag added to C-terminus
T2 chain: T1 chain with T95P, A121T, K127I, S128A, N130K, N135D, Q142R
Experiment: as above
B1 gave a Kd of 830 nM.
Work on B2 yielded a Kd of 2300 nM.
Work on B3 yielded a Kd of 760 nM.
Work on B4 yielded a Kd of 3500 nM.
B5 gave a Kd of 4500 nM.
Work on B6 yielded a Kd of 1900 nM.
B7 showed a Kd of 1900 nM.
B8 gave a Kd of 2300 nM.
In the case of B9, the Kd is reported as 3700 nM.

These binders were tested against T3, human FcγRIIIaV extracellular domain, C-terminal His-tag (human, UniProt P08637 17-208) in the same assay as above.
T3 construct: also called FcgRIIIaV; not shown: His-tag added to C-terminus
T3 sequence (P08637 17-208 F176V): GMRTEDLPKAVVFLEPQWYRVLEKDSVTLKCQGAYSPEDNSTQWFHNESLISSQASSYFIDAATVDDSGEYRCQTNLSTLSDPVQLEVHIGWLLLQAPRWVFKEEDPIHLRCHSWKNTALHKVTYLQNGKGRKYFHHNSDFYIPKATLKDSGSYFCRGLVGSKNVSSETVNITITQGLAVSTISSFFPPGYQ
Work on B1 yielded a Kd of 2500 nM.
In the case of B2, the Kd is reported as 39000 nM.
B3 showed a Kd of 2300 nM.
B4 gave a Kd of 91000 nM.
In the case of B5, the Kd is reported as 9200 nM.
B6 gave a Kd of 870 nM.
Work on B7 yielded a Kd of 18000 nM.
With B8 the Kd was 1100 nM.
Binder B9 has a Kd of 9700 nM.

Molecular target: T4, cynomolgus monkey FcγRIIa3 extracellular domain, C-terminal His-tag (cynomolgus monkey)
T4 construct: also called cyno FcγRIIa3; cynoFcgRIIa3; not shown: His-tag added to C-terminus
T4 chain: T1 chain with K127I, N130K, H133P, Q142R
Experiment: as above
In the case of B1, the Kd is reported as 2000 nM.
For B2, the Kd was 3900 nM.
Binder B3 has a Kd of 3100 nM.
B4 gave a Kd of 5500 nM.
Binder B5 has a Kd of 5900 nM.
For B6, the Kd was 6200 nM.
B7 gave a Kd of 2500 nM.
B8 showed a Kd of 6400 nM.
In the case of B9, the Kd is reported as 11000 nM.

Molecular target: T5, cynomolgus monkey FcγRIIb extracellular domain, C-terminal His-tag (cynomolgus monkey)
T5 construct: also called cyno FcγRIIb; cynoFcγRIIb; not shown: His-tag added to C-terminus
T5 chain: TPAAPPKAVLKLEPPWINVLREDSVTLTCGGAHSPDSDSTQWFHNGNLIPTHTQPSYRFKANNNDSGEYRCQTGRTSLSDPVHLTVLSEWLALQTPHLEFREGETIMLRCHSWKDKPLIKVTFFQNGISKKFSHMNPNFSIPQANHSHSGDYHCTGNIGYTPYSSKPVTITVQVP
Experiment: as above
For B1, the Kd was 230 nM.
Work on B2 yielded a Kd of 860 nM.
In the case of B3, the Kd is reported as 190 nM.
B4 was tested, and the Kd was 1300 nM.
For B5, the Kd was 1100 nM.
In the case of B6, the Kd is reported as 430 nM.
B7 showed a Kd of 510 nM.
Binder B8 has a Kd of 350 nM.
For B9, the Kd was 1200 nM.

Molecular target: T6, human FcγRIIaR extracellular domain, C-terminal His-tag (human, UniProt P12318 34-217)
T6 construct: also called human FcγRIIa (type R); FcgRIIaR; not shown: His-tag added to C-terminus
T6 chain: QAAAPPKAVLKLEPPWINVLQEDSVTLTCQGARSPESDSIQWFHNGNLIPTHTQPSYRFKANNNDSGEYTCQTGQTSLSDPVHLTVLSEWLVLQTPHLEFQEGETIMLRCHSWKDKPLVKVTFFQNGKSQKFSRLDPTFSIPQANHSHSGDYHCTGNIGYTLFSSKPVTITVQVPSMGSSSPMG
Experiment: as above
With B1 the Kd was 170 nM.
B2 showed a Kd of 73 nM.
Binder B3 has a Kd of 2300 nM.
B4 showed a Kd of 160 nM.
B5 showed a Kd of 690 nM.
B6 was tested, and the Kd was 250 nM.
B7 gave a Kd of 62 nM.
In the case of B8, the Kd is reported as 720 nM.
In the case of B9, the Kd is reported as 1000 nM.

These binders were tested against T7, human FcγRIIb extracellular domain, C-terminal His-tag (human, UniProt P31994 43-217) in the same assay as above.
T7 construct: also called FcgRIIb (human); not shown: His-tag added to C-terminus
T7 sequence: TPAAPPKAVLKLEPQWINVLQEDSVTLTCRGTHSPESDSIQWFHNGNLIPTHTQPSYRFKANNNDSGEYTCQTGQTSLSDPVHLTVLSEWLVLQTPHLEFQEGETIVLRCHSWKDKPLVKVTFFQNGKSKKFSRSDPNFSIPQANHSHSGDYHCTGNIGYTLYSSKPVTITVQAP
With B1 the Kd was 950 nM.
B2 gave a Kd of 150 nM.
With B3 the Kd was 2100 nM.
For B4, the Kd was 340 nM.
Work on B5 yielded a Kd of 1900 nM.
B6 was tested, and the Kd was 1200 nM.
B7 was tested, and the Kd was 130 nM.
With B8 the Kd was 2100 nM.
Work on B9 yielded a Kd of 3000 nM.
